From publication PMC7533328, “Sulfane sulfur‐activated actinorhodin production and sporulation is maintained by a natural gene circuit in Streptomyces coelicolor” come the findings set out here.

The target in data set [1] is T1, ScCsoR (Streptomyces coelicolor M145) (UniProt Q9RD62).
T1 sequence: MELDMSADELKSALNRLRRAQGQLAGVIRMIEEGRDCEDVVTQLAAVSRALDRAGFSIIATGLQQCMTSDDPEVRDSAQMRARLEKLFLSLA
Nature of the data set: EMSA. The settings on record: 20 mM Tris-HCl pH 8.0, 2 mM EDTA, 20 mM KCl, 0.5 mM DTT (or 1-3 mM HSnH), 4% Ficoll-400, 1 nM probe, 25 C, 15 min. For orientation: In EMSA bound probe runs differently from free probe, usually more slowly.

Data set [2] relates to T2, ScCsoR-C66S C67S (Streptomyces coelicolor M145), ORF:9a82776c.
T2 sequence: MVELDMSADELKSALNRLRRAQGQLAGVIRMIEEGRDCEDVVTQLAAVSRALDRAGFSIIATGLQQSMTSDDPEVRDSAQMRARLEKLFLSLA
Nature of the data set: EMSA. The settings on record: 20 mM Tris-HCl pH 8.0, 2 mM EDTA, 20 mM KCl, 0.5 mM DTT (or 1-3 mM HSnH), 4% Ficoll-400, 1 nM probe, 25 C, 15 min.

Data set [3] relates to T3, ScCsoR-C37S-C66S C38S;C67S (Streptomyces coelicolor M145), ORF:9a82776c.
T3 sequence: T2 sequence with C38S
Kind of data set: EMSA. Particulars: 20 mM Tris-HCl pH 8.0, 2 mM EDTA, 20 mM KCl, 0.5 mM DTT (or 1-3 mM HSnH), 4% Ficoll-400, 1 nM probe, 25 C, 15 min.

Data set [4] relates to T4, ScCsoR-C37S C38S (Streptomyces coelicolor M145), ORF:9a82776c.
T4 sequence: T2 sequence with C38S, S67C
Nature of the data set: EMSA. Particulars: 20 mM Tris-HCl pH 8.0, 2 mM EDTA, 20 mM KCl, 0.5 mM DTT (or 1-3 mM HSnH), 4% Ficoll-400, 1 nM probe, 25 C, 15 min.

The target of data set [5] is T5, ScCsoR (Streptomyces coelicolor M145, UniProt Q9RD62 1-92).
T5 sequence: T1 sequence
Kind of data set: EMSA; DTT; also with 50-fold competitor DNA; 20 mM Tris-HCl pH 8.0, 2 mM EDTA, 20 mM KCl, 0.5 mM DTT (or 1-3 mM HSnH), 4% Ficoll-400, 1 nM probe, 25 C, 15 min. Particulars: protein: recombinant; tags: N-terminal His-tag (pET15b); chain copies: 4; label: 5'-biotin on strand 1; blunt.

Data set [6] addresses T5, ScCsoR. Kind of data set: competition EMSA; 50-fold excess over 79-bp probe; 20 mM Tris-HCl pH 8.0, 2 mM EDTA, 20 mM KCl, 0.5 mM DTT (or 1-3 mM HSnH), 4% Ficoll-400, 1 nM probe, 25 C, 15 min. Particulars: protein: recombinant; tags: N-terminal His-tag (pET15b); chain copies: 4; blunt.

Substitutions are numbered along the chain they refer to.

“ACGGCGCGGGGGCGGCGTGAGCAGACGACGAGCACACCCTCTCAATACCCCCCTGGGTATATCTGTTACGGTGGCCGGAAGAGATACCCCAGGGGGTAATTCCGGAAGGA (double strand) [Scpdo promoter f2]”: the binding entry in data set [1] is reported as “binds”.
The same measure, in the same setting: for “AGGACGTCGACAAAGAACACGGCACGCTCTCCTTCCGGAATTACCCCCTGGGGTATCTCTTCCGGCCACCGTAACAGATATACCCAGGGGGGTATTGAGAGGGTGTGC (double strand) [Scpdo promoter f3]” the value was “binds”; for “CGACGACGGTGAACTCGGCCAGGCGGGCCGCCGCCTGCCCGGTGGTCAGTGCGGTGGCGGTTGCTGCGGGGGTGTTCACGGAGCGAGACCTTTCTCGTTGTTCGTCCCCCCGCGCGGTAGGATACCCGCGGGGGTATGTGGGGTTCGGTGAGGTATCGGGTGGAGGAGAGGGAGAAGCGTGGAGCTCGACATGTCGGCCGACGAACTGAAGTCGGCGCTGAACCGGCTGCGGCGCGCCCAGGGGCAGCTCGCGGGAGTCAT (double strand) [SccsoR-Scrhod intergenic region 261 bp]”, “binds”.
As for “CGGTGACCTTCTCCGCCCCGTGTTCGGCGGCGAGGCGCACCGCGGCCTCGGCCAGAGCGGCACGTGTGGCCCGCTTCTTCCGCTCCCGCAGACCGCCCCCCGCGGCACCCTTCTCCGACATAAGTTGCATGGTATGCAAAGATGCATGACATGCAAAATTGGCGGGCGCCGACCCCGGAAGGGGATCGGCGCCCGCCGTCGTCGGTGCGGCTCAGGCGGCCAGTCGGGCCAGCGTCTCCTCG (double strand) [sco0622 promoter 242 bp]”, in data set [1], the binding entry is reported as “no binding”.
Same read-out and setting: for “GCCAGATAGCTGCGGTTGCCCAGTGACTCGGTCTCCAGGACGTCGACAAAGAACACGGCACGCTCTCCTTCCGGAATTACCCCCTGGGGTATCTCTTCCGGCCACCGT (double strand) [Scpdo promoter f4]” the value was “no binding”.
“GCCAGATAGCTGCGGTTGCCCAGTGACTCGGTCTCCAGGACGTCGACAAAGAACACGGCACGCTCTCCTTCCGGAATTACCCCCTGGGGTATCTCTTCCGGCCACCGTAACAGATATACCCAGGGGGGTATTGAGAGGGTGTGCTCGTCGTCTGCTCACGCCGCCCCCGCGCCGTCGCGGGCCGAGTGCGCCGCCGCTGCGCGCCTGTGCCGCGAGACCCGGGCAACTCCGGTGTACGACGCCGAAGTTGGGGTAC (double strand) [Scpdo promoter 256 bp]”: the binding result in data set [2], in data set [3], in data set [1] and in data set [4] was “binds” throughout.
With “TCTGCTCACGCCGCCCCCGCGCCGTCGCGGGCCGAGTGCGCCGCCGCTGCGCGCCTGTGCCGCGAGACCCGGGCAACTCCGGTGTACGACGCCGAAGTTGGGGTAC (double strand) [Scpdo promoter f1]”, the binding result in data set [1] was “no binding”.

B1: Scpdo 79-bp probe (bsI, bsII) (dsDNA)
DNA 1: CCTGGGTATATCTGTTACGGTGGCCGGAAGAGATACCCCAGGGGGTAATTCCGGAAGGAGAGCGTGCCGTGTTCTTTGT
DNA 2: ACAAAGAACACGGCACGCTCTCCTTCCGGAATTACCCCCTGGGGTATCTCTTCCGGCCACCGTAACAGATATACCCAGG
Turning to B1, the binding result in the data set with ScCsoR [5] is “binds”.

B2: hrdB 79-bp competitor DNA (dsDNA)
DNA 1: CATTCCCAAGCCGGTGGTCGGCCCCTGTCCGCCGTGGACGGGGCCGGAAGCCGTTTTTCAACGTTCCGAGAGGTTGTTC
DNA 2: GAACAACCTCTCGGAACGTTGAAAAACGGCTTCCGGCCCCGTCCACGGCGGACAGGGGCCGACCACCGGCTTGGGAATG
With B2, the binding result with ScCsoR [6] is given as “no binding”.
